Patent US20130039857

Tests used:
[1] = target: LKB1 (endogenous, in skeletal muscle and 3T3L1 adipocyte extracts) (UniProt Q9WTK7)
[2] = test system: 141 overlapping peptides (12-15 residues in length) corresponding to the LKB1 sequence
[3] = test system: His-LKB1 fusion protein (purified)

Q: “Fyn-CA, constitutively active Fyn mutant (pcDNA3.1-Fyn-CA(Y527F)-V5)” was tested. Which “tyrosine phosphorylation of endogenous LKB1 immunoprecipitated from transfected tibialis anterior muscle (PY100 immunoblot)” value [1] did it give?
A: The value was “In the absence of Fyn-CA, there was a relatively low level of LKB1 tyrosine phosphorylation that was significantly increased by the expression of Fyn-CA”.

Q: Which “tyrosine phosphorylation of LKB1 immunoprecipitates from 3T3L1 adipocytes (PY100 immunoblot)” value [1] does the source give for Fyn expressed from pcDNA3.1-Fyn-V5 here?
A: Its value is “Immunoblotting of LKB1 immunoprecipitates with the PY100 phosphotyrosine antibody demonstrated Fyn-induced tyrosine phosphorylation of LKB1”.

Q: What does the source list for “recombinant His-FynT kinase (Calbiochem)”?
A: in vitro phosphorylation of an overlapping peptide array (Phosphosite Detector) [2]: This analysis identified five tyrosines (Y60, Y156, Y166, Y261, and Y365) as potential LKB1 phosphorylation acceptor sites for the Fyn kinase; tyrosine phosphorylation in an in vitro kinase reaction (PY100 phosphotyrosine immunoblot) [3]: purified His-LKB1-tagged fusion protein was tyrosine phosphorylated by purified recombinant Fyn kinase in vitro
